Test results published in article PMC12236752.

Biological target: Avs8A (ECOR07), fused to 6xHis-SUMO (E. coli ECOR07) (UniProt B7LDL1)
Assay: MST

Substance: Basel 21 major capsid protein (natural protein)
- Kd: 14 nM
